From US20260207700A1, “MEDICAL PRODUCTS CONTAINING AN AQUEOUS FORMULATION OF A PEPTIDE” (LYTIX BIOPHARMA AS, priority 2022, published 2026)
Non-standard residues stand in square brackets, D forms with d. No end group written: not given here. Dip = N[C@H](C(=O)O)C(c1ccccc1)c1ccccc1

Key:
[1] = Appearance of LTX-315 drug product in sealed vials on storage (visual, Ph.Eur 2.9.20), Example 1.1; type: physicochemical
Description: (§1) • LTX-315=acetate salt of peptide with sequence K-K-W-W-K-K-W-Dip-K-NH2 20 mg/mL LTX-315 drug product was prepared by dissolving LTX-315 powder in WFI and filtered through a 0.22 μm sterile filter. 1 ml of the drug product was then filled into vials and sealed. The WFI complied to the Ph. Eur monograph 0169 for WFI. All product contact vials, glassware and peripherals were sterilised by depyrogenation in a hot air oven at 250° C. for 120 minutes after twice rinsing with WFI. Product contact tubing, stoppers and over-seals were twice rinsed with WFI then sterilised by autoclaving for >15 minutes at 121° C. then dried overnight in a drying oven. The vials were stored as set out in Table 1 below and analysed according to the listed parameters. Appearance was tested visually according to Ph.Eur 2.9.20 and osmolality according to Ph. Eur. 2.2.35. pH was tested according to Ph. Eur. 2.2.3. Colour and clarity were tested according to Ph. Eur 2.2.2 and Ph. Eur 2.2.1, respectively.

[2] = Osmolality of LTX-315 drug product on storage (Ph. Eur. 2.2.35), Example 1.1; type: physicochemical; conditions: 20 mg/mL in WFI
Description: as §1

[3] = LTX-315 concentration after storage, reversed phase HPLC UV 220 nm, Example 1.2; type: physicochemical; conditions: for LTX-315 concentration, Vial 1 / LTX-315 concentration, Vial 2 / Mean content / Rec./T = 0 / Rec./theory (percentage of theoretical 20 mg/mL): 20 mg/mL in WFI
Description: (§2) Drug product was prepared and stored as described in Example 1.1.
(§3) Reversed phase HPLC, using a trifluoracetic acid (TFA) system and UV detection at 220 nm, was used to determine the amount of LTX-315 after storage of the vials in accordance with the storage conditions set out in Table 2.
(§4) The column used was an RP C18, e.g. Waters Sunfire, 3.5 μm, 4.6×150 mm. The LTX-315 concentration in the test sample solution was 0.5 mg/ml and the injection volume 10 μl. The gradient profile used is set out below and the flow rate was 1.2 mL/min.

[4] = Purity/related substances after storage, HPLC, Example 1.3; type: physicochemical; conditions: 20 mg/mL in WFI
Description: as §3, §4, §2
HPLC analysis was performed as described in Example 1.2 to determine the concentration of LTX-315 and the amount of related substances, i.e. substances formed due to and thus related to the degradation of LTX-315 in the drug product.

[5] = pH of LTX-315 drug product on storage (Ph. Eur. 2.2.3), Example 1.1; type: physicochemical; conditions: 20 mg/mL in WFI
Description: as §1

[6] = 20-30° C., protected from light; cited from earlier work

For “K-K-W-W-K-K-W-Dip-K-NH2 (KKWWKKW[Dip]K-NH2) [LTX-315]”, the “Change in appearance, osmolality, pH, colour and clarity” value ([1]; 6 months at 25° C. with 60% RH in the dark) was “no change”, the “Change in appearance, osmolality, pH, colour and clarity” value ([1]; 24 months in the dark at 2-8° C.) was “no change” and the Osmolality ([2]; 2-8° C., T = 6 months) was 133 mOsmkg^−1. For the same molecule, the Osmolality ([2]; 2-8° C., T = 12 months) was 133 mOsmkg^−1, the Osmolality ([2]; 2-8° C., T = 24 months) was 132 mOsmkg^−1 and the Osmolality ([2]; 25° C./60% RH, T = 6 months) was 133 mOsmkg^−1. The Osmolality ([2]; Initial (T = 0)) was 132 mOsmkg^−1, the “LTX-315 concentration, Vial 1” value ([3]; 2-8° C., T = 1 month) was 20.548 mg/mL and the “LTX-315 concentration, Vial 2” value ([3]; 2-8° C., T = 1 month) was 19.916 mg/mL. The Mean content ([3]; 2-8° C., T = 1 month) was 20.2 mg/mL, the “Rec./T = 0” value ([3]; 2-8° C., T = 1 month) was 96.3% and the “Rec./theory (percentage of theoretical 20 mg/mL)” value ([3]; 2-8° C., T = 1 month) was 101.2%. The “LTX-315 concentration, Vial 1” value ([3]; 2-8° C., T = 3 months) was 21.241 mg/mL, the “LTX-315 concentration, Vial 2” value ([3]; 2-8° C., T = 3 months) was 21.276 mg/mL and the Mean content ([3]; 2-8° C., T = 3 months) was 21.2 mg/mL. The “Rec./T = 0” value ([3]; 2-8° C., T = 3 months) was 101.1%, the “Rec./theory (percentage of theoretical 20 mg/mL)” value ([3]; 2-8° C., T = 3 months) was 106.3% and the “LTX-315 concentration, Vial 1” value ([3]; 2-8° C., T = 6 months) was 20.979 mg/mL. For the same molecule, the “LTX-315 concentration, Vial 2” value ([3]; 2-8° C., T = 6 months) was 21.027 mg/mL, the Mean content ([3]; 2-8° C., T = 6 months) was 21.0 mg/mL and the “Rec./T = 0” value ([3]; 2-8° C., T = 6 months) was 99.9%. For the same molecule, the “Rec./theory (percentage of theoretical 20 mg/mL)” value ([3]; 2-8° C., T = 6 months) was 105.0%, the “LTX-315 concentration, Vial 1” value ([3]; 2-8° C., T = 9 months) was 20.311 mg/mL and the “LTX-315 concentration, Vial 2” value ([3]; 2-8° C., T = 9 months) was 20.631 mg/mL. The Mean content ([3]; 2-8° C., T = 9 months) was 20.4 mg/mL, the “Rec./T = 0” value ([3]; 2-8° C., T = 9 months) was 97.4% and the “Rec./theory (percentage of theoretical 20 mg/mL)” value ([3]; 2-8° C., T = 9 months) was 102.4%. For the same molecule, the “LTX-315 concentration, Vial 1” value ([3]; 2-8° C., T = 12 months) was 20.895 mg/mL, the “LTX-315 concentration, Vial 2” value ([3]; 2-8° C., T = 12 months) was 20.631 mg/mL and the Mean content ([3]; 2-8° C., T = 12 months) was 20.7 mg/mL. For the same molecule, the “Rec./T = 0” value ([3]; 2-8° C., T = 12 months) was 98.8%, the “Rec./theory (percentage of theoretical 20 mg/mL)” value ([3]; 2-8° C., T = 12 months) was 103.8% and the “LTX-315 concentration, Vial 1” value ([3]; 2-8° C., T = 18 months) was 19.204 mg/mL. The “LTX-315 concentration, Vial 2” value ([3]; 2-8° C., T = 18 months) was 19.990 mg/mL, the Mean content ([3]; 2-8° C., T = 18 months) was 19.6 mg/mL and the “Rec./T = 0” value ([3]; 2-8° C., T = 18 months) was 93.2%. The “Rec./theory (percentage of theoretical 20 mg/mL)” value ([3]; 2-8° C., T = 18 months) was 98.0%, the “LTX-315 concentration, Vial 1” value ([3]; 2-8° C., T = 24 months) was 20.150 mg/mL and the “LTX-315 concentration, Vial 2” value ([3]; 2-8° C., T = 24 months) was 19.669 mg/mL. For the same molecule, the Mean content ([3]; 2-8° C., T = 24 months) was 19.9 mg/mL, the “Rec./T = 0” value ([3]; 2-8° C., T = 24 months) was 94.7% and the “Rec./theory (percentage of theoretical 20 mg/mL)” value ([3]; 2-8° C., T = 24 months) was 99.5%. For the same molecule, the “LTX-315 concentration, Vial 1” value ([3]; 25° C./60% RH, T = 1 month) was 20.269 mg/mL, the “LTX-315 concentration, Vial 2” value ([3]; 25° C./60% RH, T = 1 month) was 20.194 mg/mL and the Mean content ([3]; 25° C./60% RH, T = 1 month) was 20.2 mg/mL. The “Rec./T = 0” value ([3]; 25° C./60% RH, T = 1 month) was 96.2%, the “Rec./theory (percentage of theoretical 20 mg/mL)” value ([3]; 25° C./60% RH, T = 1 month) was 101.2% and the “LTX-315 concentration, Vial 1” value ([3]; 25° C./60% RH, T = 3 months) was 20.897 mg/mL. For the same molecule, the “LTX-315 concentration, Vial 2” value ([3]; 25° C./60% RH, T = 3 months) was 20.222 mg/mL, the Mean content ([3]; 25° C./60% RH, T = 3 months) was 20.5 mg/mL and the “Rec./T = 0” value ([3]; 25° C./60% RH, T = 3 months) was 97.8%. For the same molecule, the “Rec./theory (percentage of theoretical 20 mg/mL)” value ([3]; 25° C./60% RH, T = 3 months) was 102.8%, the “LTX-315 concentration, Vial 1” value ([3]; 25° C./60% RH, T = 6 months) was 20.575 mg/mL and the “LTX-315 concentration, Vial 2” value ([3]; 25° C./60% RH, T = 6 months) was 20.215 mg/mL. For the same molecule, the Mean content ([3]; 25° C./60% RH, T = 6 months) was 20.3 mg/mL, the “Rec./T = 0” value ([3]; 25° C./60% RH, T = 6 months) was 97.0% and the “Rec./theory (percentage of theoretical 20 mg/mL)” value ([3]; 25° C./60% RH, T = 6 months) was 102.0%. The “LTX-315 concentration, Vial 1” value ([3]; Initial (T = 0)) was 21.068 mg/mL, the “LTX-315 concentration, Vial 2” value ([3]; Initial (T = 0)) was 20.978 mg/mL and the Mean content ([3]; Initial (T = 0)) was 21.0 mg/mL. The “Rec./theory (percentage of theoretical 20 mg/mL)” value ([3]; Initial (T = 0)) was 105.1%, the “Change in LTX-315 concentration” value ([3]; 2-8° C., 24 months) was “very slight decrease” and the “Concentration of LTX-315 versus T=0” value ([3]; 25° C. with 60% relative humidity, six months) was “the same as the concentration at T=0”. The “Total related substances (sum of related substances >0.05%)” value ([4]; 2-8° C., 1 M) was 1.31 area %, the “Total related substances (sum of related substances >0.05%)” value ([4]; 2-8° C., 3 M) was 1.32 area % and the “Total related substances (sum of related substances >0.05%)” value ([4]; 2-8° C., 6 M) was 0.98 area %. For the same molecule, the “Total related substances (sum of related substances >0.05%)” value ([4]; 2-8° C., 9 M) was 1.54 area %, the “Total related substances (sum of related substances >0.05%)” value ([4]; 2-8° C., 12 M) was 1.34 area % and the “Total related substances (sum of related substances >0.05%)” value ([4]; 2-8° C., 18 M) was 1.37 area %. For the same molecule, the “Total related substances (sum of related substances >0.05%)” value ([4]; 2-8° C., 24 M) was 1.64 area %, the “Total related substances (sum of related substances >0.05%)” value ([4]; 2-8° C., Initial (T = 0)) was 0.88 area % and the “Total related substances (sum of related substances >0.05%)” value ([4]; 25° C./60% RH, 1 M) was 1.55 area %. For the same molecule, the “Total related substances (sum of related substances >0.05%)” value ([4]; 25° C./60% RH, 3 M) was 1.97 area %, the “Total related substances (sum of related substances >0.05%)” value ([4]; 25° C./60% RH, 6 M) was 2.31 area % and the “Total related substances (sum of related substances >0.05%)” value ([4]; 25° C./60% RH, Initial (T = 0)) was 0.88 area %. The pH ([5]; 2-8° C., T = 3 months) was 6.2, the pH ([5]; 2-8° C., T = 6 months) was 6.0 and the pH ([5]; 2-8° C., T = 12 months) was 6.1. The pH ([5]; 2-8° C., T = 24 months) was 6.1, the pH ([5]; 25° C./60% RH, T = 3 months) was 6.2 and the pH ([5]; 25° C./60% RH, T = 6 months) was 6.1. It also gave a pH ([5]; Initial (T = 0)) of 6.1.

For C[C@@H](O)[C@@H]1NC(=O)[C@H](CCCCN)NC(=O)[C@@H](Cc2c[nH]c3ccccc23)NC(=O)[C@H](Cc2ccccc2)NC(=O)[C@@H](NC(=O)[C@H](N)Cc2ccccc2)CSSC[C@@H](C(=O)N[C@H](CO)[C@@H](C)O)NC1=O [octreotide], the “Permitted storage time of liquid product” value [6] is listed as “up to 14 days”.
